Source: paper doi:10.1101/2024.04.24.590854 (bioRxiv, 2024)

Biological target: reconstituted XPO1:RanGTP nuclear export receptor complex (human | yeast (ScRan), UniProt O14980 1-1071; P32835 1-179, Q71L)
Test: fluorescence polarisation

| Kd | binding result | Binder |
| --- | --- | --- |
| 261 nM | – | {5(6)‑carboxyfluorescein}-SPLDNMIRRLSLAERAQGPR-NH2 [ETV6 P214L(203-222) peptide] |
| – | binds | {5(6)‑carboxyfluorescein}-GLEGDLLEHISLTLSVSGLGA-NH2 [POU4F3 P125L(114-134) peptide] |
